Measured values as given in paper PMC2148129.
Where two headings read alike, the source gives them in different places.

Key:
[1] = target: peripheral node addressin; assay: parallel plate laminar flow chamber, duration of transient cell tethers
[2] = target: peripheral node addressin; assay: as above; remark: listed apart in the source

B1: L-selectin (receptor)
chain: WTYHYSEKPMNWQRARRFCRDNYTDLVAIQNKAEIEYLEKTLPFSRSYYWIGIRKIGGIWTWVGTNKSLTEEAENWGDGEPNNKKNKEDCVEIYIKRNKDAGKWNDDACHKLKAALCYTASCQPWSCSGHGECVEIINNYTCNCDVGYYGPQCQFVIQCEPLEAPELGTMDCTHPLGNFSFSSQCAFSCSEGTNLTGIEETTCGPFGNWSSPEPTCQVIQCEPLSAPDLGIMNCSHPLASFSFTSACTFICSEGTELIGKKKTICESSGIWSNPSPICQKLDKSFSMIKEGDYNPLFIPVAVMVTAFSGLAFIIWLARRLKKGKKSKRSMNDPY
In the case of B1, the transient tether lifetime [1] is reported as 0.057 s and the transient tether lifetime [2] is reported as 0.087 s.
